Assays:
[1] = system: BM cells (CFU-C) migrating towards CXCL12; assay: Transwell migration of BM CFU-C towards CXCL12; assay type: cell-based, mouse; conditions: CXCL12 100 ng/ml, 4 h
Method: (§1) Input cells and cells from the lower chamber were plated into a colony assay; colony-forming unit culture (CFU-C) migration is expressed as the percent of migrated CFU-C of total CFU-C contained in the inoculum (input).
(§2) (a, b) Analysis of the binding properties of POL5551 to CXCR4. […] CXCR4 Ab without agonist/antagonists (untreated) or isotypic control Ab (isotype) were used as positive and negative controls.

[2] = system: macrophages and osteoblasts in BM and endosteum; conditions: previously confirmed; cited from earlier work
Description: Using a similar immunohistochemistry approach, we examined whether the distribution of mature osteoblasts and macrophages within the BM and endosteal environment was disturbed by treatment with POL5551. […] In contrast to G-CSF (Figures 6c and d), treatmen ...

human CXCR4 = assay: Receptor binding: competition with CXCR4 antibody clones 12G5/1D9 on Ao.o1_hCXCR4 cells; conditions: 1 μM, concurrent incubation with antibody, 4 °C, 30 min, PBS/BSA 0.5%, flow cytometry, n=3
Description: as §2
CXCR4 Ab without agonist/antagonists (untreated) or isotypic control Ab (isotype) were used as positive and negative controls.

[3] = system: hematopoietic progenitor cells (CFU-C); assay: Co-mobilization with Cyclophosphamide (CY); assay type: in vivo, mouse; conditions: 5 mg/kg i.p. on day 8 after CY 200 mg/kg i.p.
Method: (§3) POL5551 (Polyphor Ltd, Allschwil, Switzerland) was suspended in saline and either injected as bolus intraperitoneally (i.p.) or intravenously (i.v.) (0.5–100 μg/g body weight) or filled into continuous-release osmotic minipumps (model 2001, Alzet, Palo Alto, CA, USA), which were implanted under general anesthesia into a dorsal subcutaneous pouch. Mono-biotinylated POL5551 (Polyphor Ltd) was suspended in PBS (Life Technologies GmbH, Darmstadt, Germany) and injected i.p. rhG-CSF (Granocyte, Chugai, Frankfurt, Germany) was suspended in dH20 and diluted in saline to a final concentration of 0.5 μg/μl for i.p. injection. Mice received G-CSF injections every 12 h at a dose of 100 μg/kg for a total of nine doses i.p., referred to as ‘standard regimen' throughout the manuscript. Subsequent blood withdrawal and/or administration of POL5551 were performed directly after the last G-CSF injection on day 5.
(§4) For enumeration of CFU-C, aliquots of cells were incubated in duplicate in commercially available growth-factor-supplemented methyl cellulose medium for mouse CFU-C (Stem Cell Technologies, Vancouver, BC, USA or Cell Systems) as described.[23], [32] CFU-C (BFU-E, CFU-GM and CFU-GEMM) were enumerated after 6–8 days.
(§5) Circulating CFU-Cs were enumerated at the indicated time points (mean±s.e.m., n=6–8 mice). […]

[4] = system: BM cells stimulated with CXCL12; assay: F-actin polymerization assay after CXCL12 stimulation; assay type: cell-based, mouse; conditions: pretreatment with 1 μM; CXCL12 100 ng/ml, 37 °C, n=3
Description: F-actin was then stained with AlexaFluor568-conjugated phalloidin (Molecular Probes, Eugene, OR, USA) followed by flow cytometric analysis of the relative staining intensity.
as §2

[5] = system: hematopoietic progenitor cells (CFU-C) in C57BL/6 mice; conditions: Plerixafor in mice; cited from earlier work
Method: In this study, in vitro and in vivo properties of the novel CXCR4 antagonist POL5551 as a mobilizing agent were evaluated.

[6] = mouse, in vivo
[7] = system: hematopoietic progenitor cells (CFU-C) in diabetic C57BL/6 mice; assay: CFU-C mobilization in Streptozotocin-induced diabetic mice; assay type: in vivo
Method: as §3, §4

[8] = system: hematopoietic progenitor cells (CFU-C); assay: Co-mobilization with G-CSF; assay type: in vivo, mouse; conditions: Plerixafor 5 or 10 mg/kg i.p. at end of standard regimen of G-CSF, n=6–8
Method: as §3, §4, §5

[9] = system: hematopoietic progenitor cells (CFU-C) in C57BL/6 mice; assay: CFU-C mobilization in C57BL/6 mice; assay type: in vivo
Method: as §3, §4

[10] = system: hematopoietic progenitor cells (CFU-C) in DBA/2 mice; assay: CFU-C mobilization, DBA/2 relative to C57BL/6 mice; assay type: in vivo; conditions: G-CSF standard regimen
Method: as §3, §4

c-kit+ cells = assay: Immunophenotype of c-kit+ cells; assay type: in vivo, C57BL/6 mice; conditions: G-CSF standard regimen, after 9th dose, mean +/- SEM, n=5
Method: (§6) Cell labeling was performed according to standard protocols using established marker panels for identification of different subsets in mouse hematopoietic tissues. Antibodies used in this study are detailed in Supplementary Methods. Subsequent acquisition and analysis were performed on a BD FACSCanto II cytometer with the FACSDiva software (BD Biosciences). Some data were further analyzed using the FlowJo software (Tree Star, Inc., Ashland, OR, USA). Cell isolation by flow sorting was performed on a BD FACS Aria II (BD Biosciences).
C57BL/6 mice were mobilized with a bolus injection of POL5551 (5 or 30 mg/kg, i.p., n=5) or standard regimen of G-CSF (n=5). Saline treated animals (n=5) served as steady-state BM and PB donors. […] Percentage of positive cells was evaluated in comparison to isotype control. Mean fluorescence intensity was analyzed among c-kit+ cells.

[11] = system: long-term repopulating HSCs; assay: Limiting dilution competitive repopulating unit (CRU) assay; assay type: in vivo, mouse; conditions: POL5551 30 mg/kg i.p.; G-CSF standard regimen; 16 weeks, n=5–10
Method: To determine the frequency of long-term repopulating HSCs in POL5551 versus G-CSF-mobilized blood, a limiting dilution CRU assay was performed.[34] Lethally irradiated CD45.2 hosts, 5–10 per group, received i.v. grafts consisting of limiting volumes (2.5, 5.0 and 10 μl) of CD45.1 POL5551 or G-CSF-mobilized blood cells together with 2.5 × 10^5 CD45.2 BM competitor cells. After 16 weeks, multilineage contribution of the CD45.1 graft-derived leukocytes was measured using flow cytometry. Animals with evidence of mobilized blood-derived (that is, CD45.1+) Gr1+, CD11b+, B220+ and CD3+ cells (⩾0.5% for each lineage) were considered positive for donor cell engraftment. CRU (LTRC) frequency was calculated using the LCALC software (Stem Cell Technologies).
Figure 5 Mobilization of CRU by POL5551. CRU frequency in POL5551 (30 mg/kg)-mobilized blood was determined using a CRU assay and compared with the CRU frequency in G-CSF (standard regimen)-mobilized blood. […] CRU engraftment, defined as multilineage engraftment of ⩾0.5% per lineage was quantified 16 weeks after transplantation. […] The mean CRU (LTRC) frequency (b) was calculated using Poisson's statistic (LCALC software, Stem Cell Technologies) (mean±upper/lower frequency).

white blood cells = assay: Mobilization of mature leukocyte subsets; assay type: in vivo, C57BL/6 mice; conditions: POL5551 4 h i.p., G-CSF standard regimen, Plerixafor 5 mg/kg i.p. 1 h
Method: as §6
Figure S3: Mobilization of mature cell subsets by POL5551. A: Time-response of POL5551 mediated mobilization of WBCs. C57BL/6 mice received POL5551 (5 mg/kg) i.p. and blood was drawn at the indicated time points for blood count analysis (mean±SEM from 5 mice). B: Relative distribution of leukocytes in mobilized blood specimen. Blood was drawn before (baseline) and 4 hours after POL5551 injection i.p. (mean±SEM, n=5). […] C: Mobilization of T-, B-cells, monocytes and granulocytes. Blood composition was analyzed 4 hours after POL5551 injection (30 mg/kg, i.p. mean±SEM, n=6). […] D: Assessment of mobilized T-cell subsets.

[12] = system: PB-mobilized CFU-C migrating towards CXCL12; assay: Ex vivo migration of mobilized CFU-C towards CXCL12; assay type: cell-based, mouse; conditions: G-CSF standard regimen; n=5–8
Method: as §1

CXCL12: the natural ligand, the chemokine CXCL12
CXCL12-induced transwell migration of ssBM CFU-C ([1]; percent of input CFU-C, no inhibitor, n=13): ~6%

O=P1(N(CCCl)CCCl)NCCCO1 (stereo not drawn) [CY, Cyclophosphamide]
Mobilization through collapse of HSC niche cellular components [2]: initiates collapse of HSC niche cellular components

c1cc(CN2CCCNCCNCCCNCC2)ccc1CN1CCCNCCNCCCNCC1 [Plerixafor]
Binding to N-terminus / interference with 1D9 binding (human CXCR4): without affecting the binding of 1D9 | Binding to extracellular loops / interference with 12G5 binding (human CXCR4): interfered with 12G5 binding | CFU-C mobilized in combination with CY [3]: > 40 000 CFU-C per ml PB | Synergism with CY compared with CY plus G-CSF [3]: more pronounced than the combination of CY plus G-CSF | Inhibition of CXCL12-induced F-actin polymerization [4]: did not show an inhibitory effect | Dose at which mobilization peaks [5]: 5 mg/kg | Toxicity limiting dose [6]: could not be tested at doses >10 mg/kg because of its toxicity | Rescue of diabetes-induced hyporesponsiveness to G-CSF ([7]; Plerixafor 10 mg/kg i.p. after the ninth G-CSF dose, 1 h, n=3): could rescue diabetes-induced hyporesponsiveness to G-CSF | CFU-C mobilization in diabetic vs healthy mice ([7]; Plerixafor 10 mg/kg i.p., 1 h, n=3): markedly decreased (to approximately one-fourth) | Inhibition of CXCL12-induced transwell migration of ssBM CFU-C ([1]; pre-incubation with 1 μM, n=3): completely blocked | Mobilization in combination with G-CSF [8]: noticeably enhanced | Circulating CFU-C ([9]; Plerixafor 5 mg/kg i.p., n=4): 1300 CFU-C/ml

B1: G-CSF: rhG-CSF (Granocyte, Chugai, Frankfurt, Germany) (protein, UniProt P09919 31-207, looked up)
Granulocyte …: TPLGPASSLPQSFLLKCLEQVRKIQGDGAALQEKLVSECATYKLCHPEELVLLGHSLGIPWAPLSSCPSQALQLAGCLSQLHSGLFLYQGLLQALEGISPELGPTLDTLQLDVADFATTIWQQMEELGMAPALQPTQGAMPAFASAFQRRAGGVLVASHLQSFLEVSYRVLRHLAQP
Mobilization in DBA/2 relative to C57BL/6 mice [10]: at least six times more CFU-C in DBA/2 than in C57BL/6 mice | Mobilization through collapse of HSC niche cellular components [2]: initiates collapse of HSC niche cellular components | CFU-C mobilization in diabetic vs healthy mice ([7]; G-CSF standard regimen, n=6): markedly decreased (to approximately one-fourth) | CD26, RMFI of c-kit+ cells (c-kit+ cells): 291 +/- 56 | CD26, positive c-kit+ cells (c-kit+ cells): 1,6 +/- 0,3% | CD29, RMFI of c-kit+ cells (c-kit+ cells): 1587 +/- 267 | CD29, positive c-kit+ cells (c-kit+ cells): 38,0 +/- 6,2% | CD49e, RMFI of c-kit+ cells (c-kit+ cells): 772 +/- 39 | CD49e, positive c-kit+ cells (c-kit+ cells): 55,2 +/- 3,5% | CD49f, RMFI of c-kit+ cells (c-kit+ cells): 642 +/- 104 | CD49f, positive c-kit+ cells (c-kit+ cells): 24,2 +/- 4,7% | CD49d, RMFI of c-kit+ cells (c-kit+ cells): 1179 +/- 58 | CD49d, positive c-kit+ cells (c-kit+ cells): 72,6 +/- 3,6% | VCAM1, RMFI of c-kit+ cells (c-kit+ cells): 384 +/- 73 | VCAM1, positive c-kit+ cells (c-kit+ cells): 0,7 +/- 0,1% | Circulating CFU-C ([9]; G-CSF standard regimen (100 μg/kg every 12 h, nine doses i.p.), n=58): 3800 CFU-C/ml | CRU frequency in mobilized blood [11]: 34 CRU/ml | Frequency of neutrophils in mobilized vs non mobilized blood (white blood cells): most prominently in G-CSF-mobilized | Responsiveness of mobilized CFU-C to CXCL12 [12]: to a similar degree as was also observed for G-CSF-mobilized blood

From PMC3865534 (Leukemia, 2013)
